Primed or numbered codes have the meaning given here. *: point of attachment. thiosuccinyl = lysine reacted with methyl 3-[(methylthio)thiocarbonyl]propanoate, then 1 M NaOH (thioxo peptide), O=C(O)CCC(=S)*; thioacetyl = lysine reacted with ethyl dithioacetate (thioxo peptide), CC(=S)*; Bz′ = not defined here
T1: human sirtuin 2 (human, UniProt Q8IXJ6 1-389)
T1 construct: sirtuin 2 (Sirt2), human; also called Sirt2
T1 sequence (looked up): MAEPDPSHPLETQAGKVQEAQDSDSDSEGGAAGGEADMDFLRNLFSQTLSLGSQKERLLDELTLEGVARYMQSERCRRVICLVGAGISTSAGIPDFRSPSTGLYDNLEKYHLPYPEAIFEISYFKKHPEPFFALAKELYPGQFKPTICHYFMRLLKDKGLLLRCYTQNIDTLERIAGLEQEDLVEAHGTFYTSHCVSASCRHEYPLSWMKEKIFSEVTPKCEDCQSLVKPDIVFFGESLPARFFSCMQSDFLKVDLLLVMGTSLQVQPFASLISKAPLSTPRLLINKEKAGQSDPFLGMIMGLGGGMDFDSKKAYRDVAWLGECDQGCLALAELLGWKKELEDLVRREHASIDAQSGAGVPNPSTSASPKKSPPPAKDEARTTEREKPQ


Molecular target: T1, human sirtuin 2
Experiment: enzyme inhibition kinetics (continuous fluorescence activity assay); 96-well MTP fluorescence reader; kcat and KM for substrate 3 recorded at varying inhibitor concentrations (0.01-600 μM); 500 μM NAD+; 20 mM TRIS/HCl pH 7.8, 150 mM NaCl, 5 mM MgCl2; 37 °C; Ki from competitive and non-competitive inhibition models
Conditions: both partners purified

| Ki [µM] | Binder |
| --- | --- |
| 50 ± 9.9 | {Bz′}-GVLK(thiosuccinyl)EYGV-NH2 (source: synthetic peptide) [thioxo peptide 11 based on the CPS1 peptide] |
| 0.3 ± 0.1 | {Bz′}-GVLK(thioacetyl)EYGV-NH2 (source: synthetic peptide) [thioxo peptide 10 based on the CPS1 peptide] |
